# Read-outs that look alike come from different tables or passages of the source.
# How the values were obtained:
# [1] = target: human neutrophil elastase (immobilized on Reacti-Gel agarose beads, or free) (human) (UniProt P08246); experiment: pH elution of clonal phage from HNE beads (FIG. 9)
# [2] = target: human neutrophil elastase (immobilized on Reacti-Gel agarose beads, or free) (human) (UniProt P08246); experiment: HNE beads, pH 2.0 eluate
# [3] = target: human neutrophil elastase (immobilized on Reacti-Gel agarose beads, or free) (human) (UniProt P08246); experiment: HNE beads, pH 2.5 eluate
# [4] = target: human neutrophil elastase (immobilized on Reacti-Gel agarose beads, or free) (human) (UniProt P08246); experiment: HNE beads, pH 2.5 eluate; remark: listed apart in the source
# [5] = target: human neutrophil elastase (immobilized on Reacti-Gel agarose beads, or free) (human) (UniProt P08246); experiment: HNE beads, pH 4.5 eluate
# [6] = target: human neutrophil elastase (immobilized on Reacti-Gel agarose beads, or free) (human) (UniProt P08246); experiment: HNE beads, pH 5.5 eluate
# [7] = target: human neutrophil elastase (immobilized on Reacti-Gel agarose beads, or free) (human) (UniProt P08246); experiment: HNE beads, pH 4.0 eluate
# [8] = target: human neutrophil elastase (immobilized on Reacti-Gel agarose beads, or free) (human) (UniProt P08246); experiment: HNE beads, wash
# [9] = target: human neutrophil elastase (immobilized on Reacti-Gel agarose beads, or free) (human) (UniProt P08246); experiment: HNE beads, pH 2.0 eluate; remark: listed apart in the source
# [10] = target: human neutrophil elastase (immobilized on Reacti-Gel agarose beads, or free) (human) (UniProt P08246); experiment: HNE beads, final TBS-TWEEN wash
# [11] = target: human neutrophil elastase (immobilized on Reacti-Gel agarose beads, or free) (human) (UniProt P08246); experiment: HNE beads, pH 4.0 eluate; remark: listed apart in the source
# [12] = target: human neutrophil elastase (immobilized on Reacti-Gel agarose beads, or free) (human) (UniProt P08246); experiment: pH elution of phage from HNE beads
# [13] = target: human neutrophil elastase (immobilized on Reacti-Gel agarose beads, or free) (human) (UniProt P08246); experiment: HNE beads, pH 2.0 eluate; remark: listed apart in the source
# [14] = target: human neutrophil elastase (immobilized on Reacti-Gel agarose beads, or free) (human) (UniProt P08246); experiment: HNE beads, pH 3.0 eluate
# [15] = target: human neutrophil elastase (immobilized on Reacti-Gel agarose beads, or free) (human) (UniProt P08246); experiment: HNE beads, pH 7.0 eluate
# [16] = target: human neutrophil elastase (immobilized on Reacti-Gel agarose beads, or free) (human) (UniProt P08246); experiment: HNE beads, all pH eluates
# [17] = target: human neutrophil elastase (immobilized on Reacti-Gel agarose beads, or free) (human) (UniProt P08246); experiment: HNE beads, pH 5.0 eluate
# [18] = target: human neutrophil elastase (immobilized on Reacti-Gel agarose beads, or free) (human) (UniProt P08246); experiment: HNE beads, all pH eluates; remark: listed apart in the source
# [19] = target: human neutrophil elastase (immobilized on Reacti-Gel agarose beads, or free) (human) (UniProt P08246); experiment: HNE beads, pH 7.0 eluate; remark: listed apart in the source
# [20] = target: human neutrophil elastase (immobilized on Reacti-Gel agarose beads, or free) (human) (UniProt P08246); experiment: HNE beads, pH 6.0 eluate
# [21] = target: human neutrophil elastase (immobilized on Reacti-Gel agarose beads, or free) (human) (UniProt P08246); experiment: HNE beads, pH 3.5 eluate
# [22] = target: human neutrophil elastase (immobilized on Reacti-Gel agarose beads, or free) (human) (UniProt P08246); experiment: HNE beads, all pH eluates; remark: listed apart in the source
# [23] = target: human neutrophil elastase (immobilized on Reacti-Gel agarose beads, or free) (human) (UniProt P08246); experiment: HNE beads, pH 5.5 eluate; remark: listed apart in the source
# [24] = target: human neutrophil elastase (immobilized on Reacti-Gel agarose beads, or free) (human) (UniProt P08246); experiment: HNE beads, pH 4.5 eluate; remark: listed apart in the source
# [25] = target: human neutrophil elastase (immobilized on Reacti-Gel agarose beads, or free) (human) (UniProt P08246); experiment: HNE beads, pH 3.5 eluate; remark: listed apart in the source
# [26] = target: human neutrophil elastase (immobilized on Reacti-Gel agarose beads, or free) (human) (UniProt P08246); experiment: HNE beads, pH 7.0 eluate; remark: listed apart in the source
# [27] = target: human neutrophil elastase (immobilized on Reacti-Gel agarose beads, or free) (human) (UniProt P08246); experiment: HNE beads, pH 5.0 eluate; remark: listed apart in the source
# [28] = target: human neutrophil elastase (immobilized on Reacti-Gel agarose beads, or free) (human) (UniProt P08246); experiment: HNE beads, pH 3.5 eluate; remark: listed apart in the source
# [29] = target: human neutrophil elastase (immobilized on Reacti-Gel agarose beads, or free) (human) (UniProt P08246); experiment: HNE beads, pH 3.0 eluate; remark: listed apart in the source
# [30] = target: human neutrophil elastase (immobilized on Reacti-Gel agarose beads, or free) (human) (UniProt P08246); experiment: HNE beads, pH 6.0 eluate; remark: listed apart in the source
# [31] = target: anhydro-trypsin (agarose-immobilized) (UniProt P00760); experiment: anhydrotrypsin beads, experiment 2
# [32] = target: human neutrophil elastase (immobilized on Reacti-Gel agarose beads, or free) (human) (UniProt P08246); experiment: acid-eluted from HNE beads
# [33] = target: anhydro-trypsin (agarose-immobilized) (UniProt P00760); experiment: titer after anhydrotrypsin beads
# [34] = target: anhydro-trypsin (agarose-immobilized) (UniProt P00760); experiment: acid-eluted from anhydrotrypsin beads, experiment 1
# [35] = target: protein A (agarose beads) (UniProt P38507); experiment: titer after protein A beads alone
# [36] = target: anhydro-trypsin (agarose-immobilized) (UniProt P00760); experiment: acid-eluted from anhydrotrypsin beads, experiment 2
# [37] = target: trypsin (active, immobilized on beads, or in solution) (UniProt P00760); experiment: eluted from trypsin beads
# Chain of trypsin (active, immobilized on beads, or in solution) (P00760 24-246): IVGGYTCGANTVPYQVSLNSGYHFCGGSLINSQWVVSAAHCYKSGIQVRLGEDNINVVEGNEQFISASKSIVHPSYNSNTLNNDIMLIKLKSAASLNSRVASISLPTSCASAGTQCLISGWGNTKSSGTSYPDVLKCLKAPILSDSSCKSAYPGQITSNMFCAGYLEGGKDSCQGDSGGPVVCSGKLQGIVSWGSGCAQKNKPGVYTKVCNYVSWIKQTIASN
# [38] = target: trypsin (active, immobilized on beads, or in solution) (UniProt P00760); experiment: acid-eluted from trypsin beads
# [39] = target: trypsin (active, immobilized on beads, or in solution) (UniProt P00760); experiment: trypsin beads
# [40] = target: human neutrophil elastase (immobilized on Reacti-Gel agarose beads, or free) (human) (UniProt P08246); experiment: HNE beads
# [41] = target: anhydro-trypsin (agarose-immobilized) (UniProt P00760); experiment: anhydrotrypsin beads, experiment 1
# [42] = target: anhydro-trypsin (agarose-immobilized) (UniProt P00760); experiment: eluted from anhydrotrypsin beads
# [43] = target: anhydro-trypsin (agarose-immobilized) (UniProt P00760); experiment: anhydrotrypsin beads
# Chain of human neutrophil elastase (immobilized on Reacti-Gel agarose beads, or free) (human) (P08246 30-247 limits assumed): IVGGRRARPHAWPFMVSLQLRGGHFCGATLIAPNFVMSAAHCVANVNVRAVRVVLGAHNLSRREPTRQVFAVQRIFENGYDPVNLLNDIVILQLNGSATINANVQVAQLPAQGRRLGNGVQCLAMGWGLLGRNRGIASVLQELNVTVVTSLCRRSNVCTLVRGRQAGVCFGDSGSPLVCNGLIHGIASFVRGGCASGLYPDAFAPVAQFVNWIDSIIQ
substance,measurement,setting,value
EpiNE7 phage (designed binder),pH of elution peak,[1],3.5 pH
same,fraction of input,[2],0.00016
same,total pfu in sample,[2],290000 pfu
same,fraction of input,[3],4.8e-05
same,total pfu in sample,[3],160000 pfu
same,fraction of input,[4],0.00016
same,total pfu in sample,[4],280000 pfu
same,fraction of input,[5],0.00061
same,total pfu in sample,[5],1.1e+06 pfu
same,fraction of input,[6],0.00028
same,total pfu in sample,[6],940000 pfu
same,fraction of input,[7],0.00048
same,total pfu in sample,[7],1.6e+06 pfu
same,fraction of input,[8],6e-05
same,fraction of input,[9],9.1e-05
same,total pfu in sample,[9],300000 pfu
same,fraction of input,[10],0.00012
same,total pfu in sample,[10],380000 pfu
same,fraction of input,[11],0.00094
same,total pfu in sample,[11],1.7e+06 pfu
same,pH of elution peak,[12],3.5 pH
same,fraction of input,[13],0.001
same,fraction of input,[14],0.0002
same,total pfu in sample,[14],660000 pfu
same,fraction of input,[15],0.00029
same,total pfu in sample,[15],520000 pfu
same,"fraction of input, SUM of pH elution fractions",[16],0.0041
same,"total pfu, SUM of pH elution fractions",[16],7.6e+06 pfu
same,fraction of input,[17],0.00029
same,total pfu in sample,[17],950000 pfu
same,"fraction of input, SUM of pH elution fractions",[18],0.0043
same,fraction of input,[19],0.0003
same,fraction of input,[20],0.00041
same,total pfu in sample,[20],1.4e+06 pfu
same,fraction of input,[21],0.00061
same,total pfu in sample,[21],1.1e+06 pfu
same,"fraction of input, SUM of pH elution fractions",[22],0.003
same,"total pfu, SUM of pH elution fractions",[22],6.4e+06 pfu
same,fraction of input,[23],0.00043
same,total pfu in sample,[23],780000 pfu
same,fraction of input,[24],0.00035
same,total pfu in sample,[24],1.2e+06 pfu
same,fraction of input,[25],0.003
same,fraction of input,[26],0.00018
same,total pfu in sample,[26],620000 pfu
same,fraction of input,[27],0.00047
same,total pfu in sample,[27],840000 pfu
same,fraction of input,[28],0.00029
same,total pfu in sample,[28],950000 pfu
same,fraction of input,[29],0.00021
same,total pfu in sample,[29],380000 pfu
same,fraction of input,[30],0.00036
same,total pfu in sample,[30],640000 pfu
"M13mp18 phage (wild type, non-display phage)",binding relative to M13mp18,[31],1 fold
same,"eluted phage, % of input",[32],0.0003%
same,% of input pfu post incubation,[33],121%
same,"eluted phage, % of input",[34],0.2%
same,% of input pfu,[35],72%
same,"eluted phage, % of input",[36],0.3%
same,"eluted phage, % of input",[37],0.00023%
same,"eluted phage, % of input",[38],0.0005%
same,relative binding (to M13MP18),[39],1 fold
same,relative binding (to M13MP18),[40],1 fold
same,binding relative to M13MP18,[41],1 fold
same,"eluted phage, % of input",[42],0.1%
same,relative binding (to M13MP18),[43],1 fold
